Our source for the IC50 values is patent US20200101152A1 (INSERM INSTITUT NATIONAL DE LA SANTE ET DE LA RECHERCHE …, published 2020).

As usually defined, the IC50 is the concentration that inhibits the measured activity by half. A low value points to greater potency.

Assay [1] addresses Rhesus macaque (NHP) CD40 ectodomain fused to cohesin (Rhesus macaque, UniProt F6SNI1 21-193). The experiment in a line: multiplexed bead-based equilibrium competition; NHP CD40 ectodomain beads; competitor mouse 12E12 mAb 10 ng/ml, PE anti-mouse IgG, Bio-Plex 200.
Assay [2] concerns the target T1, human CD40 ectodomain fused to cohesin (human, UniProt P25942 22-193).
T1 construct: also called human CD40 coated beads; not shown: cohesin carrier (GenBank CP000568.1 nt 3622666-3623172) and the Nhe I site linker
The experiment in a line: multiplexed bead-based equilibrium competition; human CD40 ectodomain beads; competitor mouse 12E12 mAb 10 ng/ml, PE anti-mouse IgG, Bio-Plex 200.

Rhesus macaque (NHP) CD40 ectodomain fused to cohesin, sequence (F6SNI1 entry or part of it): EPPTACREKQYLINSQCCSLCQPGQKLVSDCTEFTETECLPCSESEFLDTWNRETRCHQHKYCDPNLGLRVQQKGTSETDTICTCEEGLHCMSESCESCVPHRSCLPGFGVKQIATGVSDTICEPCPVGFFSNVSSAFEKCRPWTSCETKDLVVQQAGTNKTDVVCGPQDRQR
T1 sequence (P25942 22-193 limits assumed, form in doubt): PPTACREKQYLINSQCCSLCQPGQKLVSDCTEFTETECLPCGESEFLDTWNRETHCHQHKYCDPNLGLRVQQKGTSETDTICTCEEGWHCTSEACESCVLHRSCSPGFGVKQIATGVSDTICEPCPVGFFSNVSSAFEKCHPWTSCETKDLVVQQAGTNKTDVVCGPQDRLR

B1: humanized αCD40 (humanized anti-human CD40 12E12 recombinant human IgG4 mAb) (antibody, V domains shown)
VH: EVQLVESGGGLVQPGGSLKLSCATSGFTFSDYYMYWVRQAPGKGLEWVAYINSGGGSTYYPDTVKGRFTISRDNAKNTLYLQMNSLRAEDTAVYYCARRGLPFHAMDYWGQGTLVTVSS
VL: DIQMTQSPSSLSASVGDRVTITCSASQGISNYLNWYQQKPGKAVKLLIYYTSILHSGVPSRFSGSGSGTDYTLTISSLQPEDFATYYCQQFNKLPPTFGGGTKLEIKG
notes: also called hAnti-CD40VH3-LV-hIgG4HC
Turning to B1, the results for the IC50 in assay [1] and in assay [2] were 0.83 pM and 1 pM, respectively.
